koff and Kd data for one molecule are collected here from paper doi:10.1101/2020.03.08.831909 (2020).

For experiment [1], the target named is OptoMB_(C450V), light-insensitive, His-tagged, purified (Avena sativa, UniProt O49003 408-543, C450V). The experiment in a line: BLI; dark conformation (C450V).
For experiment [2], the target named is His6-OptoMB_(V416I_G528A_N538E) fused to an N-terminus SUMO tag, purified (Avena sativa, UniProt O49003 408-543, V416I | G528A | N538E). The experiment in a line: BLI; light conformation (lit-mimetic mutant). (In general: In BLI a coated tip is dipped into the sample, and binding shifts an interference pattern.)

A word on the koff: it is the rate constant with which the complex falls apart. A higher koff goes with fast dissociation. As usually defined, the Kd is the free concentration of one partner at which half of the binding sites on the other are occupied at equilibrium, for simple one-to-one binding.

B1: YFP-SH2, purified (fusion of yellow fluorescent protein and SH2) (domain or fragment)
chain: SLEKHSWYHGPVSRNAAEYLLSSGINGSFLVRESESSPGQRSISLRYEGRVYHYRINTASDGKLYVSSESRFNTLAELVHHHSTVADGLITTLHYPAPKRNKPTVYGVSPNY
As for B1, in experiment [1], the koff is 0.00753 s⁻¹. In addition, in experiment [2], the dissociation constant Kd turned out to be 21.7 µM and the koff stood at 0.0489 s⁻¹.
